Drawing on a protein production outcome set (Wang et al. 2014), this text covers protein production for 16 sequences.

A short description of this series: label from the status in PepcDB records.
“MQRGSRQLYLGDPATDKLQVPEMPMQVLTAFVPGMEVAISAISSYLSTKKMSEGGAGPLLQKRRPNTRKLWSEGRVQPRPFCVLSGLAPPRSRPGPWGPFKAASWPAGTCFAPSDAAEVAASPLRRRGDCWEGRRDGGSETSSRSRIRVKRDRSKSQSRTKAEGAGRRGPVGPGDPVRPDGEKRLQARRPPAPPLASTDRKTMATMVLPREEKLSQDEIVLGTKAVIQGLETLRGEHRALLAPLASHEAGEAEPGSQERCLLLRRSLEAIELGLGEAQVILALSSHLGAVESEKQKLRAQVRRLVQENQWLREELAGTQQKLQRSEQAVAQLEEEKQHLLFMSQIRKLDEDASPNEEKGDVPKDSLDDLFPNEDEQSPAPSPGGGDVAAQHGGYEIPARLRTLHNLVIQYASQGRYEVAVPLCKQALEDLEKTSGHDHPDVATMLNILALVYRDQNKYKDAAHLLNDALAIREKTLGKDHPAVAATLNNLAVLYGKRGKYKEAEPLCKRALEIREKVLGKFHPDVAKQLSNLALLCQNQGKAEEVEYYYRRALEIYATRLGPDDPNVAKTKNNLASCYLKQGKYQDAETLYKEILTRAHEKEFGSVNGENKPIWMHAEEREESKDKRRDSAPYGEYGSWYKACKVDSPTVNTTLRSLGALYRRQGKLEAAHTLEDCASRSRKQGLDPASQTKVVELLKDGSGGRGDRRGSRDVAGGAGPRSESDLEESGPAAEWSGDGSGSLRRSGSFGKLRDALRRSSEMLVRKLQGGGPQEPPNSRMKRASSLNFLNKSVEEPVQPGGTGLSDSRTLSSSSMDLSRRSSLVG”: the protein production entry is recorded as “failed”. In the case of “MQRIMVIGGPGSGKSTLGRKLGARLGLPVVHMDPIYWLGDWVERDKAEAMRMAKEVADGSQWVFEGNHFASMAYRAERADLIVFLDMPRVLRMWRILWRSLRYYGRTRPDMGPNCPERFNRAFLKFCWTYDREGRLRALGFVDDWRDRRRVRILTSRRQVAAFLVEIDRQLEHHHHHH” it was “failed”; in that of “MQRLKTVFILFIAFLFFSCSGKTNEQAFFKELSKIDLQIAEGYQAKALKSLKRLQKKAVNSTNYVSIVKRQLKLNSIPDALISLQTGIKKIPDSPELSALLTSILIDSGKPAEALPYCEKLKDTPYASLGAEASILSDIALNSFNSDFSLLKAAYDKTENQVFLKNAAIVLAAKGRLREASNLRYNIPNDVAPEHPFFWSCIVYDLGVFDSIFGDLYFSLVYADKDGGEGKTAENARLHLMLAADAAYGQGDTERARAFWQAAADRSPEASPIVFYDLALTAPDEKERVDLLIECIDLYPDFYPVIARYVREDIALRELNSQDELSAYLESKGFYSIKMEETYFTSPKMTYKPEDLLARAMKNPNFDQRFILEEFRYNQITDKTYASKARGKADMWKILEKYGKESIIREYAKWYFAQSGDFNACLSVSEIGKRYEDSFYAGINSALSGDFENAVSSFAASAQVSAYAYASTVNSAYMYYMSGKTSEAVDTYSLAASMTQDKKRQSMLHYEIASIFYERKAYDRAISVLGYALELNPKNYQAASLLKKLKEFN”, “failed”; in that of “MQRLQHYYQCFLAQLKNFDGIPALLLRLYLAPVFIMAGFSKTQMLNEEVTGFSAIMADPNIIAWFGNSDWGLGLPFPALLANLVILVEFFGGWFLLFGALTRLISIPLMFTMIVAATSVHADNGWFAITPTNSDISPAKVAVWLGIDSAQASLDNSEQTATRLEKMRELIEENGNTDWLYENGNIVVLNNGIEFSTTYFIMLLSLFFIGAGRYTSVDHFVAKRFLIEEKRFS”, “failed”. Consider “MQRLSTEFSMNHPVRRSPIASFFVGLWDVMNFTRRLIFNLVFFGFLFMLLLVFVVALARGDGTKPLAERTTLVINPEGTLVEQFSADPVSRSLAKAVGDKSAQEVQLRDLVRVIEAAGKDRKIERVLLNLDKFQPSGFASQREVAAALQKLRASGKQIVAFSESMSQGQYLLAAQANEVYLDPMGSVLLEGLGRYRQYFREGLQDKLGVDVHLFRVGEYKSAAEPYILDAASADAKEADLFWMNDVWQRYLADVVTARKLSPAQLTAGIDTLPEGVAAAGGDLAKFALQQKLVDGLKTREEVDALLVKRGVADSDAESGFRNIGFNDYLSQLQAQDSPMDSRPQVAVVVATGEISGGEQPAGRIGGESTAALLRQARDDEKVKAVVLRVDSPGGEVFASEQIRREVVALKQAGKPVVVSMGDLAASGGYWISMNADRIYADPSTISGSIGIFGMVPNLTRALDKIGVHTDGVGTTRFAGAFDITRPLDPAAGQVIQAVINKGYADFTGKVAQARHQSVDAIDKVARGRVWSGAQAKERGLVDAFGGMSEAVADAADRAKLSRGKFRVRYVEKPATPFSQFMNGFAGSRMGAWMLSDSGMARALVARALPEVDTQLRFVESAVHDSKAGGTPVKSLAYCFCGF”, for which the protein production result is reported as “failed”. Consider “MQRQNKQQEDSFMIPETSYDIVVVGAGPAGSTAALYAAKKGASVLLLDKKREIGSPIQCAGFLPDASEVKALLPEADLPGALKNYPDSCVLQPIRTQRIIPPNCNAKEFAVKGAVLDRRRYDQYLAEQAAEAGAELMVKTRVTKIQGTTVETSGIFGKHTIRAKAIIGADGPNSLVAKSRGLIMKPEARETSVAIEYQVRNVDIDPDALEMYFGKDYVPGGYAWVFPEGKDRANVGIGIRSCMAEKGVSAKEYLHRFIKKHPVAGPKLKNAVIMNVIAGIIPVNGAPANTATADSLVVGDAAGHIIATNGGGIPPAMIAGKIAGETAAEFAAGKCDLEEYDRRWRAQFGQALETSVQARQIMDGIMKSDALMNAAFRFISPEQMKVMQCGKLPGPVKLGLQALSRGKK”, for which the protein production entry was “failed”. “MQSFFDREFTFDRTARLFFIILLVGGIMAIVIGLRGILIPFCLSWILAYVLMPLVRFVQYRLHFRFRFLSVITVLVFISALIFFAILSLVPAVEEEVSKTITLLQQYRIDENLLQMLPAPIRKFLSESGSMNDLFKGISYEKLMENSKEIFGQLNKLVSGTISLFSYTTIFFIGVLYFIFILFDFEKLGKGFVNLFPVGHRIRVRSILKEVDKNMNSYFRGQALIALCVGILLSIGYKIIDFPLGVTLGLFIGMLNLIPYLQIVGLIPIVFLSVLKAAQTGQNFFVVLALGIGVMMIVQVIQDTILTPNIMGKRMGMSPAMILLSISIWGSLLGFFGLFIALPLTMSLYSVYKRYVIQDPKFIREENEETMPKKGLFRKHSRKEEK”: the protein production entry is given as “failed”. As to “MQSILKPITNLFTMIFQAIHGFVASLDIFGVGAGYVITIFLLTLLVRLILLPLNIKQTRSQQKMQEIQPEIAKLQKKYKNNPEKAQQEMMKLYKENNVNPMSGCLPLLIQMPILFALYYVFTGLTELQGVSFLWLGDLWAPDRTFILPILSAATTYLSSLLMTKFTQSQAGGAPGGMNMNTMNIVMAGMMGVMSIQFPSMLVLYWVIGNLIQMVQTYFIVVLPSRKRAKEKEQYKDIK”, the protein production result was “failed”. As to “MQSIRSILVVIDPTPGESLALKRAKLIAGVTQAHLHLLVCDRKHEHSALLSVLKSSLTGEGYSVTTEQAWNESLHETIIDVQQAEGCGLVIKQHLPDAPLKKALLTPADWKLLRYCPTPVLLVKTATPWVGGVVMAAIDVGNMDGEHRALHASIVDHGFDIASLAKAQLHVISAHPSPMLSAADPVFQLKETIEARYREQCKAFQAEFDIDDAHLHIEEGPADVLIPHLAHKLGAVLTIIGTVARTGISGALIGNTAEVVLDSLDSDVLVLKPADIMDHLEELAAKA”, the protein production result is listed as “not failed”. In the case of “MQSRFRSDRRLTVRMGVTLFLLGLLYVGFVAALIALLKSWVLVVVIVALVFGAQYWFSDRIALFAMRGRVVEREEYPELHGVVDRLAAMADMPKPVVAVSEMEMPNAFATGRNPDNAVVCVTTGLLRRLEPAELEGVLAHELSHVAHKDVAVITVASFLGVIAGLIVRFAFYSQLFGGRRDQNTLAVLAVVMGVSAAVYALSFLLIRALSRYRELAADRAAALLTGRPSALAAALTKVTGDIARIPTKDLRTAQAFNAFYFTPAFGSDPGLGRFFATHPSLEQRLDQLGRISTELGEAPAPGKA”, the protein production entry was “failed”. Consider “MQSRSKSDMKPIRKEILNPGNAYIELTPGTRRLTPHDIGLFQVKFHFQTRRAGDSRIIDDSRKMEKPMELVLGKKFKLEVWELIVQQMSLNEVAKFTVHKSLCAQYPFISKTLRDIGKKPEERRHCCGMTLQNEGIGYTDLDELLQNPSDLEFIIELFSIELPEQYEKERWQMSDDEKMLATSTLRERGNNFYKASRFTEAETCYREAVGIVEQLMLKEKPHDEEWQELAAIKTPLLLNYAQCRLIAGDFYAVIEHCNEVLTLDPRNVKALFRRAKAHAGAWNPAQARRDFLDALALDASLKSTVSKELKSIEDQQQARNVQDRIHMQKLF”, for which the protein production entry was “failed”.

“MQSVSSMSSMDHFWLVIFCACVAFIPRFFPLLFFTKRKIPKWFNEWMRFVPVSLFTALVVKSVFIDSKYAVITSGNLGMIISAILVGFVAYRTRSMTLSVVIGLVSVMIFVLLIHI”: the protein production result is given as “failed”. In the case of “MQSVWFYMGKSFKIHCLTYIIFILQWLIFLSCKKHYKGEKVDRKAGVILFWHGKLALMPFAFRHYRQKNKKAYVMISHHKDGEQIAKIIKLFGLDTVRGSTSRGASSALRAAFKVLEQNDDIVITPDGPRGPYHSISDGSIILAQKKELKIRILNYEANRFWKFKSWDKMILPKPFSKITYSLSEPLDILSLDKEKAKEFLMKQFDKISLADQFKE”, the protein production entry is given as “failed”. As to “MQTACQAVQHQRGRRQYNKLRNLLKDARHDCILFANEFQQCCYLPRERGESMEKWQTRSIYNAAVWYYHHCQDRMPIVMVTEDEEAIQQYGSETEGVFVITFKNYLDNFWPDLKAAHELCDSILQSRRERENESQESHGKEYPEHLPLEVLEAGIKSGRYIQGILNVNKHRAQIEAFVRLQGASSKDSDLVSDILIHGMKARNRSIHGDVVVVELLPKNEWKGRTVALCENDCDDKASGESPSEPMPTGRVVGILQKNWRDYVVTFPSKEEVQSQGKNAQKILVTPWDYRIPKIRISTQQAETLQDFRVVVRIDSWESTSVYPNGHFVRVLGRIGDLEGEIATILVENSISVIPFSEAQMCEMPVNTPESPWKVSPEEEQKRKDLRKSHLVFSIDPKGCEDVDDTLSVRTLNNGNLELGVHIADVTHFVAPNSYIDIEARTRATTYYLADRRYDMLPSVLSADLCSLLGGVDRYAVSIMWELDKASYEIKKVWYGRTIIRSAYKLFYEAAQELLDGNLSVVDDIPEFKDLDEKSRQAKLEELVWAIGKLTDIARHVRAKRDGCGALELEGVEVCVQLDDKKNIHDLIPKQPLEVHETVAECMILANHWVAKKIWESFPHQALLRQHPPPHQEFFSELRECAKAKGFFIDTRSNKTLADSLDNANDPHDPIVNRLLRSMATQAMSNALYFSTGSCAEEEFHHYGLALDKYTHFTSPIRRYSDIVVHRLLMAAISKDKKMEIKGNLFSNKDLEELCRHINNRNQAAQHSQKQSTELFQCMYFKDKDPATEERCISDGVIYSIRTNGVLLFIPRFGIKGAAYLKNKDGLVISCGPDSCSEWKPGSLQRFQNKITSTTTDGESVTFHLFDHVTVRISIQASRCHSDTIRLEIISNKPYKIPNTELIHQSSPLLKSELVKEVTKSVEEAQLAQEVKVNIIQEEYQEYRQTKGRSLYTLLEEIRDLALLDVSNNYGI”, the protein production entry is on record as “failed”. In the case of “MQTESNPLAERFIARNLLDLAIRITLIGGLTVWCYRVAEPFIGMLLWSIILAVTLAPLHMRLTRLLGARPRLAAVVLTLATMLVLLVPGAMLTASLGDSLVNIFHHSTGRIVRIPAPPDFVIELPLIGVRLHEIWLQAMTNLQDVLKPLQPHLATAGRWLLAGMASAGLGIAVFLASIAIAGVILVYADPAKRAAHAIGVRIAGPEQGVALAQLTAATIRAVAQGVIGVALIQAVLAGLGFLLAGVPAAGLWAIVALLICIVQLPLFLLMVPMVVYVFLNNTPTVAAVFAVWCLLVSLCDNVLKPLMLARGVDIPIPVILIGALGGVLAAGIVGLFLGSVGFGLGYVLFMQWVRQQSPAG” it was “failed”; in that of “MQTFAPGTRVYHLIIIVFFFFFCLSSFFASIVMADEYTGEATGSSEAKVHIIYTEKPTDEEPKTYHLRTLSSALGSEEAAKDALIYSYKEAASGFSAKLTPEQVAEISKQPGVIQVVPSQTYQLHKPGGGGGFKLT”, “failed”.
